# In patent US20080095772A1 (Chugai, published 2008):
# Like-named read-outs stand apart in the source and are kept apart here.
# B1: humanized #23-57-137-1 antibody, H chain version a, L chain version s (antibody, V domains shown)
# VH: QVQLVESGGGVVQPGRSLRLSCAASGFTFSSYGMSWVRQAPGKGLEWVATISSGGSYTYYPDSVKGRFTISRDNSKNTLYLQMNSLRAEDTAVYYCARQTTMTYFAYWGQGTLVTVSS
# VL: QLVLTQSPSASASLGASVKLTCTLSSQHSTYTIEWYQQQPEKGPKYVMDLKQDGSHSTGDGIPDRFSGSSSGAERYLTISSLQSEDEADYICGVGDTIKEQFVYVFGGGTKLTVLG
# B2: hH / hLa (antibody, V domains shown)
# VH: QVQLVESGGGVVQPGRSLRLSCAASGFTFSSYGMSWVRQAPGKGLEWVATISSGGSYTYYPDSVKGRFTISRDNSKNTLYLQMNSLRAEDTAVYYCARQTTMTYFAYWGQGTLVTVSS
# VL: QLVLTQSPSASASLGASVKLTCTLSSQHSTYTIEWHQQQPEKGPRYLMKLKQDGSHSTGDGIPDRFSGSSSGAERYLTISSLQSEDEADYYCGVGDTIKEQFVYVFGGGTKLTVL
# notes: copies: 2 + 2
# B3: humanized #23-57-137-1 antibody, H chain version a, L chain version m (antibody, V domains shown)
# VH: QVQLVESGGGVVQPGRSLRLSCAASGFTFSSYGMSWVRQAPGKGLEWVATISSGGSYTYYPDSVKGRFTISRDNSKNTLYLQMNSLRAEDTAVYYCARQTTMTYFAYWGQGTLVTVSS
# VL: QLVLTQSPSASASLGASVKLTCTLSSQHSTYTIEWYQQQPEKGPRYLMDLKQDGSHSTGDGIPDRFSGSSSGAERYLTISSLQSEDEADYYCGVGDTIKEQFVYVFGGGTKLTVLG
# notes: Human Cγ1 and human Cλ C regions; Expressed in COS-7 for ELISA and in CHO for BIACORE; also called hMBCm
# B4: humanized #23-57-137-1 antibody, H chain version a, L chain version t (antibody, V domains shown)
# VH: QVQLVESGGGVVQPGRSLRLSCAASGFTFSSYGMSWVRQAPGKGLEWVATISSGGSYTYYPDSVKGRFTISRDNSKNTLYLQMNSLRAEDTAVYYCARQTTMTYFAYWGQGTLVTVSS
# VL: QLVLTQSPSASASLGASVKLTCTLSSQHSTYTIEWYQQQPEKGPRYVMDLKQDGSHSTGDGIPDRFSGSSSGAERYLTISSLQSEDEADYICGVGDTIKEQFVYVFGGGTKLTVLG
# notes: Human Cγ1 and human Cλ C regions; Expressed in COS-7
# B5: hH / hLb (antibody, V domains shown)
# VH: QVQLVESGGGVVQPGRSLRLSCAASGFTFSSYGMSWVRQAPGKGLEWVATISSGGSYTYYPDSVKGRFTISRDNSKNTLYLQMNSLRAEDTAVYYCARQTTMTYFAYWGQGTLVTVSS
# VL: QLVLTQSPSASASLGASVKLTCTLSSQHSTYTIEWHQQQPEKPPRYLMDLKQDGSHSTGDGIPDRFSGSSSGAERYLTISSLQSEDEADYYCGVGDTIKEQFVYVFGGGTKLTVL
# notes: copies: 2 + 2
# B6: mouse FR1,2/human FR3,4 hybrid antibody (L chain m/hMBC1Ldλ, humanized H chain version a) (antibody, V domains shown)
# VH: QVQLVESGGGVVQPGRSLRLSCAASGFTFSSYGMSWVRQAPGKGLEWVATISSGGSYTYYPDSVKGRFTISRDNSKNTLYLQMNSLRAEDTAVYYCARQTTMTYFAYWGQGTLVTVSS
# VL: QLVLTQSSSASFSLGASAKLTCTLSSQHSTYTIEWYQQQPLKPPKYVMDLKQDGSHSTGDGIPDRFSGSSSGAERYLTISSLQSEDEADYICGVGDTIKEQFVYVFGGGTKLTVLG
# notes: as for B4
# B7: humanized #23-57-137-1 antibody, H chain version a, L chain version o (antibody, V domains shown)
# VH: QVQLVESGGGVVQPGRSLRLSCAASGFTFSSYGMSWVRQAPGKGLEWVATISSGGSYTYYPDSVKGRFTISRDNSKNTLYLQMNSLRAEDTAVYYCARQTTMTYFAYWGQGTLVTVSS
# VL: QLVLTQSPSASASLGASVKLTCTLSSQHSTYTIEWYQQQPEKGPRYVMDLKQDGSHSTGDGIPDRFSGSSSGAERYLTISSLQSEDEADYYCGVGDTIKEQFVYVFGGGTKLTVLG
# notes: as for B4
# B8: human FR1/mouse FR2,3,4 hybrid antibody (L chain hmmMBC1L(λ), humanized H chain version a) (antibody, V domains shown)
# VH: QVQLVESGGGVVQPGRSLRLSCAASGFTFSSYGMSWVRQAPGKGLEWVATISSGGSYTYYPDSVKGRFTISRDNSKNTLYLQMNSLRAEDTAVYYCARQTTMTYFAYWGQGTLVTVSS
# VL: QLVLTQSPSASASLGASVKLTCTLSSQHSTYTIEWYQQQPLKPPKYVMDLKQDGSHSTGDGIPDRFSGSSSGADRYLSISNIQPEDEAMYICGVGDTIKEQFVYVFGGGTKVTVLG
# notes: as for B4
# B9: mouse FR1,2/human FR3,4 hybrid antibody (L chain m/hMBC1Laλ, humanized H chain version a) (antibody, V domains shown)
# VH: QVQLVESGGGVVQPGRSLRLSCAASGFTFSSYGMSWVRQAPGKGLEWVATISSGGSYTYYPDSVKGRFTISRDNSKNTLYLQMNSLRAEDTAVYYCARQTTMTYFAYWGQGTLVTVSS
# VL: QLVLTQSSSASFSLGASAKLTCTLSSQHSTYTIEWYQQQPLKPPKYVMDLKQDGSHSTGDGIPDRFSGSSSGAERYLTISSLQSEDEADYYCGVGDTIKEQFVYVFGGGTKLTVLG
# notes: as for B4
# B10: humanized #23-57-137-1 antibody, H chain version a, L chain version q (antibody, V domains shown)
# VH: QVQLVESGGGVVQPGRSLRLSCAASGFTFSSYGMSWVRQAPGKGLEWVATISSGGSYTYYPDSVKGRFTISRDNSKNTLYLQMNSLRAEDTAVYYCARQTTMTYFAYWGQGTLVTVSS
# VL: QLVLTQSPSASASLGASVKLTCTLSSQHSTYTIEWYQQQPEKGPKYLMDLKQDGSHSTGDGIPDRFSGSSSGAERYLTISSLQSEDEADYICGVGDTIKEQFVYVFGGGTKLTVLG
# notes: Human Cγ1 and human Cλ C regions; Expressed in COS-7 for ELISA and in CHO for BIACORE; also called hMBCq
# B11: human FR1,2/mouse FR3,4 hybrid antibody (L chain h/mMBC1L(λ), humanized H chain version a) (antibody, V domains shown)
# VH: QVQLVESGGGVVQPGRSLRLSCAASGFTFSSYGMSWVRQAPGKGLEWVATISSGGSYTYYPDSVKGRFTISRDNSKNTLYLQMNSLRAEDTAVYYCARQTTMTYFAYWGQGTLVTVSS
# VL: QLVLTQSPSASASLGASVKLTCTLSSQHSTYTIEWHQQQPEKGPRYLMKLKQDGSHSTGDGIPDRFSGSSSGADRYLSISNIQPEDEAMYICGVGDTIKEQFVYVFGGGTKVTVLG
# notes: Human Cγ1 and human Cλ C regions; Expressed in COS-7; also called h/mMBC1Ld(λ)
# B12: hH / hLn (antibody, V domains shown)
# VH: QVQLVESGGGVVQPGRSLRLSCAASGFTFSSYGMSWVRQAPGKGLEWVATISSGGSYTYYPDSVKGRFTISRDNSKNTLYLQMNSLRAEDTAVYYCARQTTMTYFAYWGQGTLVTVSS
# VL: QLVLTQSPSASASLGASVKLTCTLSSQHSTYTIEWYQQQPEKGPRYVMKLKQDGSHSTGDGIPDRFSGSSSGAERYLTISSLQSEDEADYYCGVGDTIKEQFVYVFGGGTKLTVL
# notes: copies: 2 + 2
# B13: hH / hLd (antibody, V domains shown)
# VH: QVQLVESGGGVVQPGRSLRLSCAASGFTFSSYGMSWVRQAPGKGLEWVATISSGGSYTYYPDSVKGRFTISRDNSKNTLYLQMNSLRAEDTAVYYCARQTTMTYFAYWGQGTLVTVSS
# VL: QLVLTQSPSASASLGASVKLTCTLSSQHSTYTIEWHQQQPEKGPRYLMKLKQDGSHSTGDGIPDRFSGSSSGAERYLTISSLQSEDEADYICGVGDTIKEQFVYVFGGGTKLTVL
# notes: copies: 2 + 2
# B14: humanized #23-57-137-1 antibody, H chain version a, L chain version r (antibody, V domains shown)
# VH: QVQLVESGGGVVQPGRSLRLSCAASGFTFSSYGMSWVRQAPGKGLEWVATISSGGSYTYYPDSVKGRFTISRDNSKNTLYLQMNSLRAEDTAVYYCARQTTMTYFAYWGQGTLVTVSS
# VL: QLVLTQSPSASASLGASVKLTCTLSSQHSTYTIEWYQQQPEKGPRYLMDLKQDGSHSTGDGIPDRFSGSSSGAERYLTISSLQSEDEADYICGVGDTIKEQFVYVFGGGTKLTVLG
# B15: humanized #23-57-137-1 antibody, H chain version a, L chain version l (antibody, V domains shown)
# VH: QVQLVESGGGVVQPGRSLRLSCAASGFTFSSYGMSWVRQAPGKGLEWVATISSGGSYTYYPDSVKGRFTISRDNSKNTLYLQMNSLRAEDTAVYYCARQTTMTYFAYWGQGTLVTVSS
# VL: QLVLTQSPSASASLGASVKLTCTLSSQHSTYTIEWYQQQPEKGPKYVMDLKQDGSHSTGDGIPDRFSGSSSGAERYLTISSLQSEDEADYYCGVGDTIKEQFVYVFGGGTKLTVLG
# notes: as for B4
# B16: hH / hLc (antibody, V domains shown)
# VH: QVQLVESGGGVVQPGRSLRLSCAASGFTFSSYGMSWVRQAPGKGLEWVATISSGGSYTYYPDSVKGRFTISRDNSKNTLYLQMNSLRAEDTAVYYCARQTTMTYFAYWGQGTLVTVSS
# VL: QLVLTQSPSASASLGASVKLTCTLSSQHSTYTIEWHQQQPEKGPRYLMKLKQDGSHSTGDGIPDRFSGSSSGAERYLTISSLQPEDEADYYCGVGDTIKEQFVYVFGGGTKLTVL
# notes: copies: 2 + 2
# B17: chimeric #23-57-137-1 antibody with human λ L chain C region (antibody, V domains shown)
# VH: EVQLVESGGDLVKPGGSLKLSCAASGFTFSSYGMSWIRQTPDKRLEWVATISSGGSYTYYPDSVKGRFTISRDNAKNTLYLQMSSLKSEDTAMFYCARQTTMTYFAYWGQGTLVTVSA
# VL: QLVLTQSSSASFSLGASAKLTCTLSSQHSTYTIEWYQQQPLKPPKYVMDLKQDGSHSTGDGIPDRFSGSSSGADRYLSISNIQPEDEAMYICGVGDTIKEQFVYVFGGGTKVTVLG
# notes: It was expressed in COS-7 for ELISA and in CHO for BIACORE; also called chMBC; chH-chλ
# B18: mouse FR1/human FR2/mouse FR3,4 hybrid antibody (L chain mhmMBC1L(λ), humanized H chain version a) (antibody, V domains shown)
# VH: QVQLVESGGGVVQPGRSLRLSCAASGFTFSSYGMSWVRQAPGKGLEWVATISSGGSYTYYPDSVKGRFTISRDNSKNTLYLQMNSLRAEDTAVYYCARQTTMTYFAYWGQGTLVTVSS
# VL: QLVLTQSSSASFSLGASAKLTCTLSSQHSTYTIEWHQQQPEKGPRYLMKLKQDGSHSTGDGIPDRFSGSSSGADRYLSISNIQPEDEAMYICGVGDTIKEQFVYVFGGGTKVTVLG
# notes: as for B4
# Assays:
# human PTHrP (1-34) [1] = target: T1, human PTHrP (1-34) (human); experiment: ELISA on plate-coated human PTHrP (1-34) (1 µg/ml); bound antibody detected with alkaline phosphatase-conjugated goat anti-human IgG; O.D. 405/620
# T1 construct: Synthetic peptide (Peninsula; Peptide Research Institute), coated on ELISA plates at 1 µg/ml or used in solid phase RIA; also called human parathyroid hormone related protein (1-34)
# Procedure: (§1) An ELISA plate for determining antigen binding ability was prepared as follows. Each of the wells of a 96-well plate for ELISA (Maxisorp, NUNC) was coated with 100 μl of a coating buffer supplemented with 1 μg/ml of human PTHrP (1-34) and then blocked with 200 μl of a dilution buffer. Thereafter, into each of the wells, was added a culture supernatant of the COS-7 cells in which the hybrid antibody or humanized antibody was expressed or a solution of the purified hybrid antibody or the purified humanized antibody in stepwise dilution. After incubating at room temperature and washing with PBS-Tween20, 100 μl of alkaline phosphatase-conjugated goat anti-human IgG antibody (TAGO) was added to each of the wells. […] The solution was measured for absorbance at 405 nm using Microplate Reader (Bio Rad).
# human PTHrP (1-34) [2] = target: T1, human PTHrP (1-34); experiment: as above; remark: listed apart in the source
# Procedure: as §1
# human PTHrP (1-34) [3] = target: T1, human PTHrP (1-34); experiment: as above; remark: listed apart in the source
# Procedure: as §1
# PTHrP (1-34+Cys) = PTHrP (1-34+Cys) (human, C-terminal Cys coupled to sensor tip CM5 through PDEA (thiol coupling)); experiment: BIACORE (SPR), PTHrP (1-34+C) immobilised on CM5 through the C-terminal Cys, antibody as analyte
# Procedure: In this experiment, kinetic analysis of the antigen-antibody interaction using BIACORE was conducted. PTHrP(1-34+Cys) was used as an antigen and adsorbed onto the sensor tip specifically for C-terminals. Purified antibodies of various concentrations were used as an analyte. From the sensorgram obtained, kinetics parameters (binding rate constant “kass” and dissociation rate constant “kdiss”) were calculated.
# As a running buffer, HBS (10 mM HEPES, pH 7.4; 0.15 M NaCl; 3.4 mM EDTA; 0.005% Surfactant P20) at a flow rate of 5 μl/min. was employed. The carboxyl groups of carboxymethyldextran on the sensor tip CM5 were activated by an injection of 100 μl of 0.05M N-hydroxysuccinimide (NHS)/0.2M N-ethyl-N′-(3-dimethylaminopropyl)carbodiimide hydrochloride (EDC) and an injection of 100 μl of 80 mM 2-(2-pyridinyldithio)ethanamine (PDEA)/0.1M borate buffer (pH 8.5), and an additional injection of 10 μl of 5 μg/ml PTHrP (1-34+C)/10 mM sodium acetate buffer (pH 5.0) to adsorbe onto the C-terminals of PTHrP (1-34+C) specifically for Cys residues. Subsequently, an injection of 100 μl of 50 mM (L)-cystein/1M NaCl/0.1M sodium formate buffer (pH 4.3) was conducted to block excessively activated groups. Subsequently, an injection of 10 μl of 0.1M glycine-HCl buffer (pH 2.5) and 10 μl of 10 mM HCl was conducted to wash the substances having non-covalent bonding.
# The date file of interest was read and a comparison of the reaction patterns was conducted by overlaying the reaction regions of interest (FIGS. 20-24). […] Further, kinetic analysis of the interaction was conducted using an analysis software specifically designed for BIACORE “BIAevaluation 2.1” (Pharmacia) which is capable of calculating the kinetics parameters (binding rate constant “kass” and dissociation rate constant “kdiss”) by curve cutting (Tables 4 and 5).
# human PTHrP (1-34) [4] = target: T1, human PTHrP (1-34); experiment: ELISA on plate-coated human PTHrP (1-34) (1 µg/ml); bound antibody detected with alkaline phosphatase-conjugated goat anti-human IgG; O.D. 405/620; remark: listed apart in the source
# Procedure: as §1
# human PTHrP (1-34) [5] = target: T1, human PTHrP (1-34); experiment: as above; remark: listed apart in the source
# Procedure: as §1
binder,measurement,setting,value
B1,binding result,human PTHrP (1-34) [1],binds
B2,binding result,human PTHrP (1-34) [2],no binding (tested: about 390 ng/ml)
B3,binding result,human PTHrP (1-34) [3],binds
same,Kd,PTHrP (1-34+Cys),0.358 nM
same,koff,PTHrP (1-34+Cys),0.000316 s⁻¹
same,kon,PTHrP (1-34+Cys),883000 M⁻¹ s⁻¹
B4,binding result,human PTHrP (1-34) [1],binds
B5,binding result,human PTHrP (1-34) [2],no binding (tested: about 370 ng/ml)
B6,binding result,human PTHrP (1-34) [4],binds
B7,binding result,human PTHrP (1-34) [3],binds
B8,binding result,human PTHrP (1-34) [5],binds
B9,binding result,human PTHrP (1-34) [4],binds
B10,binding result,human PTHrP (1-34) [1],binds
same,Kd,PTHrP (1-34+Cys),0.225 nM
same,koff,PTHrP (1-34+Cys),0.000232 s⁻¹
same,kon,PTHrP (1-34+Cys),1.03e+06 M⁻¹ s⁻¹
B11,binding result,human PTHrP (1-34) [4],no binding (tested: about 340 ng/ml)
B12,binding result,human PTHrP (1-34) [3],no binding (tested: about 1650 ng/ml)
B13,binding result,human PTHrP (1-34) [2],no binding (tested: about 510 ng/ml)
B14,binding result,human PTHrP (1-34) [1],binds
B15,binding result,human PTHrP (1-34) [3],binds
B16,binding result,human PTHrP (1-34) [2],no binding (tested: about 460 ng/ml)
B17,binding result,human PTHrP (1-34) [5],binds
same,Kd,PTHrP (1-34+Cys),0.134 nM
same,koff,PTHrP (1-34+Cys),0.000166 s⁻¹
same,kon,PTHrP (1-34+Cys),1.24e+06 M⁻¹ s⁻¹
B18,binding result,human PTHrP (1-34) [5],no binding (tested: about 250 ng/ml)
